Here are results for 41 sequences from the supplement of paper PMC7877785.

A short description of this data set: self-splicing fitness, log relative to wild type (ln ratio); higher = more splicing; Tetrahymena group I intron in knt gene, E. coli kanamycin selection, DiMSum; sequences stand for … in CUCUCU…GGAGGGAAAAGUUAUCAGGCAUGCACCUGGUAGCUAGUCUUUAAACCAAUAGAUUGCAUCGGUUUAAAAGGCAAGACCGUCAAAUUGCGGGAAAGGGGUCAACAGCCGUUCAGUACCAAGUCUCAGGGGAAACUUUGAGAUGGCCUUGCAAAGGGUAUGGUAAUAAGCUGACGGACAUGGUCCUAACCACGCAGCCAAGUCCUAAGUCAACAGAUCUUCUGUUGAUAUGGAUGCAGUUCACAGACUAAAUGUCGGUCGGGGAAGAUGUAUUCUUCUCAUAAGAUAUAGUCGGACCUCUCCUUAAUGGGAGCUAGCGGAUGAAGUGAUGCAACACUGGAGCCGCUGGGAACUAAUUUGUAUGCGAAAGUAUAUUGAUUAGUUUUGGAGUACUCGUGGUCG
An outline of the steps: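 Six replicate transformations of E. coli BL21(DE3) with a pET-22b(+) library were grown overnight at 37°C or 30°C. The library randomised all eight P1ex-region intron nucleotides, the intron lying in the knt kanamycin-resistance gene, and plates were LB agar with or without 25 μg/mL kanamycin plus 100 μg/mL carbenicillin, 50 μM IPTG and 0.2% rhamnose. Pooled colonies were amplicon-sequenced on an Illumina HiSeq 2500, and fitness is the DiMSum error-weighted combination of wild-type-normalised replicate fold changes, kanamycin versus none.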

± gives the uncertainty stated by the source.

With UUGGAGCAAUAUUACGACUG, the “self-splicing fitness (ln)” value by setting is: (30 °C) -0.79 ± 0.46; (37 °C) 0.294 ± 0.47.
As to UUGGAGCAAUAUUACGAGGG, the “self-splicing fitness (ln)” value is -2.34 ± 0.22 (30 °C) and -2.6 ± 0.49 (37 °C).
For the sequence UUGGAGCAAUAUUACGAUUC, the “self-splicing fitness (ln)” value (37 °C) was -1.85 ± 0.32.
Still for that read-out and setting: the value for UUGGAGCAAUAUUACGAUUG was -2.34 ± 0.41.
In the case of UUGGAGCAAUAUUACGCACA, where the note is “30 °C”, the “self-splicing fitness (ln)” value is -0.871 ± 0.32.
With UUGGAGCAAUAUUACGCCCU, the “self-splicing fitness (ln)” value (37 °C) was -1.44 ± 0.46.
As for UUGGAGCAAUAUUACGCCUG, the “self-splicing fitness (ln)” value reads like this: (30 °C) -2.22 ± 0.2; (37 °C) -1.2 ± 0.23.
Taken in the same sequence, the figures for UUGGAGCAAUAUUACGCGAU were -2.54 ± 0.33 and -0.423 ± 0.35.
As to UUGGAGCAAUAUUACGCUAG, the “self-splicing fitness (ln)” value (30 °C) was -2.56 ± 0.23 and the “self-splicing fitness (ln)” value (37 °C) was -1.64 ± 0.2.
Turning to UUGGAGCAAUAUUACGGAGG, the “self-splicing fitness (ln)” value is, setting by setting: (30 °C) -2.92 ± 0.24; (37 °C) -2.01 ± 0.36.
With UUGGAGCAAUAUUACGGAUA, the “self-splicing fitness (ln)” value runs as follows: (30 °C) -2.85 ± 0.21; (37 °C) -2.04 ± 0.23.
The matching figures for UUGGAGCAAUAUUACGGUUA: -2.08 ± 0.45 and -1.49 ± 0.25.
With UUGGAGCAAUAUUACGGUUG, the “self-splicing fitness (ln)” value (30 °C) is -3.97 ± 0.28 and the “self-splicing fitness (ln)” value (37 °C) is -3.38 ± 0.31.
As to UUGGAGCAAUAUUACGUCGG, the “self-splicing fitness (ln)” value was -2.64 ± 0.26 (30 °C) and -0.784 ± 0.19 (37 °C).
Consider UUGGAGCAAUAUUACGUCUG, for which the “self-splicing fitness (ln)” value reads like this: (30 °C) -2.66 ± 0.17; (37 °C) -0.914 ± 0.22.
Consider UUGGAGCAAUAUUACGUGCU, for which the “self-splicing fitness (ln)” value (37 °C) is -2.64 ± 0.34.
As for UUGUAGCAAUAUUACGAACA, the “self-splicing fitness (ln)” value is, setting by setting: (30 °C) -0.432 ± 0.16; (37 °C) -0.256 ± 0.15.
For the sequence UUGUAGCAAUAUUACGAGUA, the “self-splicing fitness (ln)” value is -2.13 ± 0.31 (30 °C) and -1.22 ± 0.29 (37 °C).
The matching figures for UUGUAGCAAUAUUACGAUAG: -1.52 ± 0.2 and -1.16 ± 0.17.
Consider UUGUAGCAAUAUUACGCAAC, for which the “self-splicing fitness (ln)” value (30 °C) was -2.57 ± 0.41.
The same measure, in the same setting: for UUGUAGCAAUAUUACGCAAU the value was -2.98 ± 0.34.
For UUGUAGCAAUAUUACGCAUA, the “self-splicing fitness (ln)” value by setting is: (30 °C) -1.81 ± 0.16; (37 °C) -1.31 ± 0.15.
Consider UUGUAGCAAUAUUACGCGAA, for which the “self-splicing fitness (ln)” value (30 °C) was -1.02 ± 0.21 and the “self-splicing fitness (ln)” value (37 °C) was -1.73 ± 0.28.
Taken in the same sequence, the figures for UUGUAGCAAUAUUACGCGAG were -1.17 ± 0.11 and -0.735 ± 0.099.
As to UUGUAGCAAUAUUACGCGUU, the “self-splicing fitness (ln)” value runs as follows: (30 °C) -2.56 ± 0.23; (37 °C) -1.64 ± 0.33.
As to UUGUAGCAAUAUUACGCUGA, the “self-splicing fitness (ln)” value was -1.09 ± 0.18 (30 °C) and -1.05 ± 0.2 (37 °C).
Consider UUGUAGCAAUAUUACGGACG, for which the “self-splicing fitness (ln)” value is, setting by setting: (30 °C) -1.33 ± 0.19; (37 °C) -0.721 ± 0.19.
On to UUGUAGCAAUAUUACGGAGG, for which the “self-splicing fitness (ln)” value runs as follows: (30 °C) -3.76 ± 0.42; (37 °C) -1.87 ± 0.35.
Taken in the same sequence, the figures for UUGUAGCAAUAUUACGGGCA were -1.8 ± 0.21 and -0.65 ± 0.2.
Turning to UUGUAGCAAUAUUACGUACG, the “self-splicing fitness (ln)” value runs as follows: (30 °C) -1.24 ± 0.12; (37 °C) -0.138 ± 0.16.
As to UUGUAGCAAUAUUACGUAUA, the “self-splicing fitness (ln)” value by setting is: (30 °C) -2.1 ± 0.17; (37 °C) -0.709 ± 0.15.
For UUGUAGCAAUAUUACGUGAG, the “self-splicing fitness (ln)” value (30 °C) was -0.904 ± 0.076 and the “self-splicing fitness (ln)” value (37 °C) was -0.739 ± 0.11.
For the sequence UUGUAGCAAUAUUACGUGGU, the “self-splicing fitness (ln)” value is, setting by setting: (30 °C) -3.35 ± 0.3; (37 °C) -3.67 ± 0.42.
In the case of UUGUAGCAAUAUUACGUUAC, the “self-splicing fitness (ln)” value (37 °C) was -1.65 ± 0.43.
In the case of UUUAAGCAAUAUUACGAACC, the “self-splicing fitness (ln)” value (37 °C) amounted to 0.0298 ± 0.37.
As for UUUAAGCAAUAUUACGAGGU, the “self-splicing fitness (ln)” value is -3.65 ± 0.22 (30 °C) and -2.04 ± 0.15 (37 °C).
Turning to UUUAAGCAAUAUUACGAUUC, the “self-splicing fitness (ln)” value reads like this: (30 °C) -2.23 ± 0.23; (37 °C) -0.889 ± 0.19.
Regarding UUUAAGCAAUAUUACGCAAG, the “self-splicing fitness (ln)” value runs as follows: (30 °C) -1.43 ± 0.2; (37 °C) -0.275 ± 0.18.
Taken in the same sequence, the figures for UUUAAGCAAUAUUACGCAGU were -2.7 ± 0.22 and -2.36 ± 0.27.
As to UUUAAGCAAUAUUACGCGCC, the “self-splicing fitness (ln)” value is -1.12 ± 0.18 (30 °C) and -1.4 ± 0.26 (37 °C).
On to UUUAAGCAAUAUUACGCUAC, for which the “self-splicing fitness (ln)” value (30 °C) was -3.5 ± 0.32.
